Reference: US20250114430A1 (UNIVERSITY OF NORTH CAROLINA AT CHAPEL HILL, published 2025)

B1: ELD607 (peptide)
peptide: VHDIVNMLIRG
notes: Synthetic 11-residue peptidomimetic derived from ELD100 (H14R, deletion of positions 1-4, L16 deletion); also called ELD142-11
B2: ELD100 peptide (peptide)
peptide: DITLVHDIVNMLIHGL

Key:
[1] = target: T1, Orai1 plasma membrane Ca^2+ channel (endogenous, HEK293T cells and ARDS patient immune cells) (UniProt Q96D31 1-301, limits assumed); assay: cell-based or functional assay
T1 sequence (Q96D31 whole entry): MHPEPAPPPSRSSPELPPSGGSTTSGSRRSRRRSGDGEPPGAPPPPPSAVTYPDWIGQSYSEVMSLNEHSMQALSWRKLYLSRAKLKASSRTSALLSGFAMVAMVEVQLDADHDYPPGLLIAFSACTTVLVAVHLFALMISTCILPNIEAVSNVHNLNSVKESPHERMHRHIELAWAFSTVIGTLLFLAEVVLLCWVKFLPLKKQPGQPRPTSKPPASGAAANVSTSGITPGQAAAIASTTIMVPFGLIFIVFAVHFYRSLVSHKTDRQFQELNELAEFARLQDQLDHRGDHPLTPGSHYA

[2] = target: T2, peptide of Orai1's second extracellular loop (OP2); assay: dynamic light scattering (Z-average)
T2 construct: Peptide corresponding to amino acids 195-234 of Orai1
T2 peptide: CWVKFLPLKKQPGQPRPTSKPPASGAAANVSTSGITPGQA
Excerpt: (§1) Endogenous Orai1/store operated Ca²⁺ influx have been extensively studied in HEK293T cells, so this cell type was used to understand ELD607-Orai1 interactions. […] Thapsigargin is a SERCA pump inhibitor that prevents uptake of cytosolic Ca²⁺ into the endoplasmic reticulum. Thapsigargin is commonly used to stimulate Orai1/store operated Ca²⁺ influx. […] Dynamic light scattering (DLS) was used to evaluate binding of ELD607 to peptides of Orai1 extracellular loops. […] Thus, it was concluded that ELD607 interacts with Orai1.

[3] = target: T1, Orai1 plasma membrane Ca^2+ channel …; assay: cell-based or functional assay; remark: listed apart in the source
[4] = target: T3, Orai1 extracellular peptide 1 (OP1); assay: dynamic light scattering, Z-average increased
T3 peptide: EVQLDADHDYPPGL
Excerpt: as §1

| Binder | IC50 (Molar), Ca^2+ influx after Ca^2+ add back, HEK293T cells [1] | binding result [2] | IC50, inhibiting store operated Ca^2+ influx in HEK293T cells [3] | binding result [4] |
| --- | --- | --- | --- | --- |
| B1 | 8.1e-08 Molar | no binding | 9 nM | binds |
| B2 | 3.7e-08 Molar |  | 124 nM |  |
